The values that follow come from patent US20230067757A1.

The target in assay [1] is human claudin 18 isoform 2 (claudin 18.2) (human). Nature of the assay: cell-based or functional assay.
For assay [2] the target is unchanged. Nature of the assay: immunofluorescence imaging, CHO-CLDN18.2 cells (FIG. 3B).
Assay [3] has the same target. Nature of the assay: immunofluorescence imaging on CHO-Claudin18.2 cells, serial dilution of antibody; table drawn under the curves (run with Hu-2, Hu-9, Hu-10).

Sequence of PC1 (in-house positive control CLDN18.2-specific antibody zolbetuximab) (VH): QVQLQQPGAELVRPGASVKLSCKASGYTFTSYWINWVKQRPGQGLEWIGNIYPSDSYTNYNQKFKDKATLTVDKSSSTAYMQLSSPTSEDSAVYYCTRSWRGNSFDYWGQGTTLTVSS
Sequence of PC1 (in-house positive control CLDN18.2-specific antibody zolbetuximab) (VL): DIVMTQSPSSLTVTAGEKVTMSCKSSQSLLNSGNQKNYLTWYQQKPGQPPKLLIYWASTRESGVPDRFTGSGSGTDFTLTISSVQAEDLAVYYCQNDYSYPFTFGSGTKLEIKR

Substance “PC1 (in-house positive control CLDN18.2-specific antibody zolbetuximab)” showed an ADCC EC50, similar assay with human effector cells (data not shown) in assay [1] of 0.66 nM. Further, the EC50 in assay [2] and in assay [3] was 3.2 nM throughout.

For orientation: EC50 means the concentration giving half of the maximal effect. Read a high EC50 as lower potency in that assay.
